Reference: article doi:10.1101/2020.06.17.153486

Columns and labels:
[1] = biological target: SARS-CoV-2 spike trimer (S trimer), soluble ectodomain (SARS-CoV-2) (UniProt P0DTC2); assay: cryo-EM structure
[2] = biological target: SARS-CoV-2 spike trimer (S trimer), soluble ectodomain (SARS-CoV-2, Wuhan-Hu-1 type); assay: cryo-EM structure

Row | Substance | stoichiometry N (Fab per trimer) [1] | stoichiometry N (Fab per trimer) [2]
1 | 2-43 Fab | 3 | –
2 | 4-8 Fab | – | 3
